This passage reports Kd, binding signal and binding signal (C (delta Tm, maximum)) results from PMC11992677.

Data set [1] has as its system METTL3 (METTL3/14 complex);METTL14 (METTL3/14 complex). Briefly: MST. To be noted: MST and nanoDSF: 20 mM Tris pH 7.5, 50 uM ZnCl2, 1% glycerol, 1 mM DTT (MST 100 nM probe; nanoDSF 1 uM protein, 20-80 C). EMSA: 40 mM KCl, 20 mM Tris pH 7.6, 1. On the technique in general: In EMSA bound probe runs differently from free probe, usually more slowly.
The test system is the same in data set [2]. The data set is described as follows: thermal shift (nanoDSF). To be noted: MST and nanoDSF: 20 mM Tris pH 7.5, 50 uM ZnCl2, 1% glycerol, 1 mM DTT (MST 100 nM probe; nanoDSF 1 uM protein, 20-80 C). EMSA: 40 mM KCl, 20 mM Tris pH 7.6, 1.
Data set [3] relates to MacroH2A.1.1 (with H2B);H2B (with MacroH2A.1.1) (;). The data set is described as follows: MST. Conditions: poly(ADP-ribose) polymer, no base sequence; MST and nanoDSF: 20 mM Tris pH 7.5, 50 uM ZnCl2, 1% glycerol, 1 mM DTT (MST 100 nM probe; nanoDSF 1 uM protein, 20-80 C). EMSA: 40 mM KCl, 20 mM Tris pH 7.6, 1.
Data set [4] shares this test system. The data set is described as follows: thermal shift (nanoDSF). Conditions: 50 uM ZnCl2; dose-dependent; poly(ADP-ribose) polymer, no base sequence; MST and nanoDSF: 20 mM Tris pH 7.5, 50 uM ZnCl2, 1% glycerol, 1 mM DTT (MST 100 nM probe; nanoDSF 1 uM protein, 20-80 C). EMSA: 40 mM KCl, 20 mM Tris pH 7.6, 1.

A value given as a limit tells only on which side of the number the result lay.

By Kd is commonly meant a measure of binding affinity in units of concentration. As for “DRACH RNA probe (4 tandem repeats of DRACH motif)”, in data set [1], the Kd is 700 nM. The binding signal in data set [2] is 1 C (delta Tm).
As to PAR (poly-(ADP-ribose)), the Kd in data set [1] (poly(ADP-ribose) polymer, no base sequence) came out at 1100 nM; in data set [3] it was 500 nM. In addition, the binding signal (C (delta Tm, maximum)) in data set [2] (50 uM ZnCl2, concentration-dependent, poly(ADP-ribose) polymer, no base sequence) is more than 2; in data set [4], 3.
